The target of this assay is T1, IGF-1R (Insulin-like growth factor 1 receptor) on the surface of MCF-7 cells (UniProt P08069 31-1367, limits assumed).
T1 construct: whole, on cells; Endogenous receptor of MCF-7 cells; also called MCF-7 세포 표면 IGF-1R 항원; IGF-1 수용체
The assay can be described thus: flow cytometry (FACS) on MCF-7 cells, 1 ug/ml antibody, anti-human IgG-FITC.

The text below walks through data of patent KR20130033273A (dated 2013).

T1 sequence (P08069 31-1367 limits assumed): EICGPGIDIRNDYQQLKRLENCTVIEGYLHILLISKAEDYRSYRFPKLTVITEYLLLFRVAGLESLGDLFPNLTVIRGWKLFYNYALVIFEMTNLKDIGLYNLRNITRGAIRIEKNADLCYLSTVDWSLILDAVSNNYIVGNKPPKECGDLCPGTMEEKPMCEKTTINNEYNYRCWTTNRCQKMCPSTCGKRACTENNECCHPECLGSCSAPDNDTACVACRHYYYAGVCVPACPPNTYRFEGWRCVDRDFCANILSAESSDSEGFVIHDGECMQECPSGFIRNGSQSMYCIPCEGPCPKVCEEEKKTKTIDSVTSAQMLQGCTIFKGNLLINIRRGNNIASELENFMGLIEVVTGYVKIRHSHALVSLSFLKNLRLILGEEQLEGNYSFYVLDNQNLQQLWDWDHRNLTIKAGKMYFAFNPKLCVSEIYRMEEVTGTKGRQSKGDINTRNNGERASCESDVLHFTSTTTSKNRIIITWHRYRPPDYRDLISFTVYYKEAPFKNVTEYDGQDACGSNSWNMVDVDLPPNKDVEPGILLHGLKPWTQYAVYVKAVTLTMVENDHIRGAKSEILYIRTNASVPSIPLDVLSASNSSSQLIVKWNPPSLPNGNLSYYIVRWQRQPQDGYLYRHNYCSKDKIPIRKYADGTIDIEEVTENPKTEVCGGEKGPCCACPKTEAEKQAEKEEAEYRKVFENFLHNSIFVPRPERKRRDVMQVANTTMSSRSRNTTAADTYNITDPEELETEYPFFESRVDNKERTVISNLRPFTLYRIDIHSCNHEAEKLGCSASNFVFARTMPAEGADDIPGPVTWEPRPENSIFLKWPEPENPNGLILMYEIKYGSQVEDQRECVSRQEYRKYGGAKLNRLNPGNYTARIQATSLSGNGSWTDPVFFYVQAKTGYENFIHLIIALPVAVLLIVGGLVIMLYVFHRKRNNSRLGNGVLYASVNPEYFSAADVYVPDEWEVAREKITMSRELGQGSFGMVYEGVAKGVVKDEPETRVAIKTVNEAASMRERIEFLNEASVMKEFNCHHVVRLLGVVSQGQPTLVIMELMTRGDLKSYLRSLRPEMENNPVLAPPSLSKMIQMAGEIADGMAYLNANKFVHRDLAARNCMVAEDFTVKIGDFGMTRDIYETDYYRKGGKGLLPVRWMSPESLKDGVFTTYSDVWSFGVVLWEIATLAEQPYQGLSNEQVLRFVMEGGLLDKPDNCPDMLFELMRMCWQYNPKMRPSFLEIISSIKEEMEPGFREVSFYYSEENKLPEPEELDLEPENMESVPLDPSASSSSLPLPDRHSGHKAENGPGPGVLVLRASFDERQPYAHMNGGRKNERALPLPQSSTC

B1: 항IGF-1R 항체(A12) (antibody, human IgG1, lambda, V domains shown)
VH: EVQLVQSGAEVKKPGSSVKVSCKASGGTFSSYAISWVRQAPGQGLEWMGGIIPIFGTANYAQKFQGRVTITADKSTSTAYMELSSLRSEDTAVYYCARAPLRFLEWSTQDHYYYYYMDVWGKGTTVTVSS
VL: SSELTQDPAVSVALGQTVRITCQGDSLRSYYATWYQQKPGQAPILVIYGENKRPSGIPDRFSGSSSGNTASLTITGAQAEDEADYYCKSRDGSGQHLVFGGGTKLTVLG
notes: IgG form; also called 항암항체(A12); Imclone사(A12) 항IGF-1R 항체
Turning to B1, the binding result is listed as “binds”.
